Measurements reported in article PMC7337384 (bioRxiv, 2020).

Biological target: T1, MERS-CoV receptor-binding domain fused to the Fc domain of human IgG1 (MERS-CoV, UniProt K9N5Q8 381-587)
T1 sequence: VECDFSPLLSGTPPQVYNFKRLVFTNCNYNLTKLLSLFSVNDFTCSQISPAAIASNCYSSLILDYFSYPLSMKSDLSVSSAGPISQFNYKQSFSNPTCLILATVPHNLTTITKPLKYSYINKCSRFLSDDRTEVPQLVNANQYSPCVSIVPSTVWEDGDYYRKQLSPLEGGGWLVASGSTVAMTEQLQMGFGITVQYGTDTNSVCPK
Experiment: SPR

B1: soluble monomeric human ACE2-NN (enzymatically inactive human ACE2 lacking its active-site histidines) (domain or fragment)
chain: QSTIEEQAKTFLDKFNHEAEDLFYQSSLASWNYNTNITEENVQNMNNAGDKWSAFLKEQSTLAQMYPLQEIQNLTVKLQLQALQQNGSSVLSEDKSKRLNTILNTMSTIYSTGKVCNPDNPQECLLLEPGLNEIMANSLDYNERLWAWESWRSEVGKQLRPLYEEYVVLKNEMARANHYEDYGDYWRGDYEVNGVDGYDYSRGQLIEDVEHTFEEIKPLYEHLHAYVRAKLMNAYPSYISPIGCLPAHLLGDMWGRFWTNLYSLTVPFGQKPNIDVTDAMVDQAWDAQRIFKEAEKFFVSVGLPNMTQGFWENSMLTDPGNVQKAVCHPTAWDLGKGDFRILMCTKVTMDDFLTAHNEMGNIQYDMAYAAQPFLLRNGANEGFHEAVGEIMSLSAATPKHLKSIGLLSPDFQEDNETEINFLLKQALTIVGTLPFTYMLEKWRWMVFKGEIPKDQWMKKWWEMKREIVGVVEPVPHDETYCDPASLFHVSNDYSFIRYYTRTLYQFQFQEALCQAAKHEGPLHKCDISNSTEAGQKLFNMLRLGKSEPWTLALENVVGAKNMNVRPLLNYFEPLFTWLKDQNKNSFVGWSTDWSPYEPEA
B1 showed a Kd greater than 35 µM.
